In PMC6761100 one finds ratio to parent data, which are given here for four sequences.

The experiment concerns the target Myc.His.CK1a. As to the kind of experiment: c-Myc immunoprecipitation (CK1a IP). The conditions noted are these: strains cultured in LL; n = 4; parent: est. 1.0; read off a plot.

As for “FREQUENCY (FRQ), wild type (from UniProt P19970) L488V”, the ratio to parent stood at 0.23.
Turning to “FREQUENCY (FRQ), wild type (from UniProt P19970) Q325N”, the ratio to parent worked out at 0.97.
Regarding “FREQUENCY (FRQ), wild type (from UniProt P19970) Q494N”, the ratio to parent was 0.68.
Regarding “FREQUENCY (FRQ), wild type (from UniProt P19970) V320I”, the ratio to parent was 0.52.
